Test results from US20060115839A1.
pKd: −log10 of the molar value.

Biological target: T1, histone H3 peptide with dimethylated Lys79 (isothermal titration calorimetry)
T1 sequence (peptide, dimethylated Lys79): IAQDFKTDLR
Test: isothermal titration calorimetry (data not shown)

Sequence of 53BP1 tandem tudor domain (isothermal titration calorimetry) (P70399 1480-1621 limits assumed): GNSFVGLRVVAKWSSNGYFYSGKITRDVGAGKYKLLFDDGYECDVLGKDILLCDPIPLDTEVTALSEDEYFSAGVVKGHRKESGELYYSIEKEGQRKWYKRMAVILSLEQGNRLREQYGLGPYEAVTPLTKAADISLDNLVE

53BP1 tandem tudor domain (isothermal titration calorimetry) (from UniProt P70399 1480-1621)
pKd: > 6.00
